Values of other authors as cited in article PMC10219547.
Read-outs that look alike come from different tables or passages of the source.

Key:
PTH1R (Homo sapiens) [1] = biological target: PTH1R (Homo sapiens) (UniProt Q03431)
PTH1R (Homo sapiens) [2] = biological target: PTH1R (Homo sapiens) (UniProt Q03431); remark: listed apart in the source

Sequence of UniProt Q03431 (Q03431 27-593): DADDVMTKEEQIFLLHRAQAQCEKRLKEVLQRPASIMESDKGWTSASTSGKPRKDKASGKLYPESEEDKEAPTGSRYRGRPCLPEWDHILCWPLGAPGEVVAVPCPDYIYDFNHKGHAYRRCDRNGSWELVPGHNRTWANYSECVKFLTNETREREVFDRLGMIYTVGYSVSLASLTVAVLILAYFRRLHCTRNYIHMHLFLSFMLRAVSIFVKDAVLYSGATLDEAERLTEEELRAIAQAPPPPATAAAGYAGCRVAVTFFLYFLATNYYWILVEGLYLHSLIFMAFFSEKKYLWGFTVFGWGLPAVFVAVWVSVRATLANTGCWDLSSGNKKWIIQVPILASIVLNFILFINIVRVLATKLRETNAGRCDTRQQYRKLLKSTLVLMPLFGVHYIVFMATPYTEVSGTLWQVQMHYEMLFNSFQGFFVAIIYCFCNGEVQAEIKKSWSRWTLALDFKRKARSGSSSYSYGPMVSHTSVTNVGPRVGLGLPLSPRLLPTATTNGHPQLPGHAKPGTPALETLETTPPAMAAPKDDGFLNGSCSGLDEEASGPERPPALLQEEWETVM

| Substance | Kd (PTH1R (Homo sapiens) [1]) | Kd (PTH1R (Homo sapiens) [2]) |
| --- | --- | --- |
| TIP39 (from UniProt Q96A98) | 60 nM |  |
| TIP(7-39) 7-39 (from UniProt Q96A98) |  | 17 nM |
